Results: patent US20210238292A1 (VACCINEX, published 2021)
Positions count from the first letter of the chain named. Like-named read-outs stand apart in the source and are kept apart here.

Columns and labels:
[1] = target: human CCR8 (C-C chemokine receptor type 8) expressed on cells (human) (UniProt P51685); experiment: flow cytometry competition on Raji-CCR8 cells; competitor: fluorescently-conjugated BIOLEGEND anti-human CCR8 antibody at a single concentration
[2] = target: T1, human CCR8 (C-C chemokine receptor type 8) expressed on cells (human, UniProt P51685 1-355); experiment: on-cell affinity, flow cytometry on 293T cells expressing human CCR8
T1 construct: also called HuCCR8
T1 sequence (P51685 whole entry): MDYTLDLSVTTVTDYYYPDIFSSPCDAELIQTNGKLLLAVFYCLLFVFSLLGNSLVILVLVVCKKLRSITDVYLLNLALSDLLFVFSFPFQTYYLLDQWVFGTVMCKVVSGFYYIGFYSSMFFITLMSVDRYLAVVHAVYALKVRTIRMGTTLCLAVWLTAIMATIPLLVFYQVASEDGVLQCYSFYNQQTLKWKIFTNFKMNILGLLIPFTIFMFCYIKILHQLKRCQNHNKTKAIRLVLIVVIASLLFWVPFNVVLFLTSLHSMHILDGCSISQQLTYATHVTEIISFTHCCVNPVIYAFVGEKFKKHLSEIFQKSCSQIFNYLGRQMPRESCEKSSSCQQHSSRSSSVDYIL

Cynomolgus CCR8-ECD-Fc [3] = target: T2, Cynomolgus CCR8-ECD-Fc (cynomolgus monkey); experiment: binding to CyCCR8-ECD-huFc protein (so in the source), OD45-570nm (so in the source)
T2 construct: also called CyCCR8-ECD-Fc; Cynomolgus CCR8-Fc
T2 chain: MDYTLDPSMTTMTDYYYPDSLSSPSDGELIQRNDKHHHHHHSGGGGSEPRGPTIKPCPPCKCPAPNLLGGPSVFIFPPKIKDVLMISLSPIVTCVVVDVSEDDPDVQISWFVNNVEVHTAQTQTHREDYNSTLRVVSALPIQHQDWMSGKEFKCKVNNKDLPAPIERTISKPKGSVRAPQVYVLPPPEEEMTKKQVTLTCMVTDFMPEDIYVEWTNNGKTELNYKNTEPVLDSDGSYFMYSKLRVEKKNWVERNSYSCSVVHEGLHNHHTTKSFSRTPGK

Human CCR8-ECD-Fc [4] = target: T3, Human CCR8-ECD-Fc (human); experiment: binding to HuCCR8-ECD-moFc protein (so in the source), OD45-570nm (so in the source)
T3 construct: also called HuCCR8-ECD-Fc; huCC8-ECD-Fc
T3 chain: T2 chain with P7L, M9V, M12V, S20I, L21F, G27A, R32T, D34G

[5] = target: T4, mouse CCR8 expressed on 293T cells (mouse, UniProt P56484 1-353); experiment: flow cytometry, mouseCCR8-293T cells, fold geomean over secondary alone
T4 construct: whole, on cells
T4 sequence (looked up): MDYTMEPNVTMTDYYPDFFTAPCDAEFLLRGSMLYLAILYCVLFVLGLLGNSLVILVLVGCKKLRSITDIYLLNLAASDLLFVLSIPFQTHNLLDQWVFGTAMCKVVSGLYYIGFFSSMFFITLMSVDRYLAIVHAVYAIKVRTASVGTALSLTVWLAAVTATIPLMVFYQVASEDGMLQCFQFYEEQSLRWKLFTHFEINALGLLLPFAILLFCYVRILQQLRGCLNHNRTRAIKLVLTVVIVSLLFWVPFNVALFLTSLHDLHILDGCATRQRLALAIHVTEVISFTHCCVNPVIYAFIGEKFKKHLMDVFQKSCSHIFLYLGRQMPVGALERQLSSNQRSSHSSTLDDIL

Human CCR8-ECD-Fc [6] = target: T3, Human CCR8-ECD-Fc; experiment: binding to HuCCR8-ECD-moFc protein (so in the source), OD45-570nm (so in the source)
[7] = target: T5, cynomolgus monkey CCR8 expressed on cells (cynomolgus monkey, UniProt G7NYJ2 1-355); experiment: on-cell affinity, flow cytometry on 293T cells expressing cyno CCR8
T5 construct: whole, on cells; also called cyno CCR8; CyCCR8
Target sequence in this assay (G7NYJ2 entry or part of it): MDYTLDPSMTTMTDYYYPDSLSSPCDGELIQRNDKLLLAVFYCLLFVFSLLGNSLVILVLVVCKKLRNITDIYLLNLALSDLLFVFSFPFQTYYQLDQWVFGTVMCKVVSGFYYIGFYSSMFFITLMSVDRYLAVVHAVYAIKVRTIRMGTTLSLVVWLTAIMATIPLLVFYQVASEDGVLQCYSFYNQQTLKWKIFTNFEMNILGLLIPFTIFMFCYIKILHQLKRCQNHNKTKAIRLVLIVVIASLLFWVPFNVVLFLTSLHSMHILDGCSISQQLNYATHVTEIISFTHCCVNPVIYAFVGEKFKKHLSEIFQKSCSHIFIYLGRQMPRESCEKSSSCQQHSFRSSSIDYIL

Cynomolgus CCR8-ECD-Fc [8] = target: T2, Cynomolgus CCR8-ECD-Fc; experiment: binding to CyCCR8-ECD-huFc protein (so in the source), OD45-570nm (so in the source)
[9] = target: T4, mouse CCR8 expressed on 293T cells; experiment: flow cytometry, mouseCCR8-293T cells, fold geomean over secondary alone; remark: listed apart in the source
[10] = target: T5, cynomolgus monkey CCR8 expressed on …; experiment: on-cell affinity, flow cytometry on 293T cells expressing cyno CCR8; remark: listed apart in the source
Target sequence in this assay (G7NYJ2 entry or part of it): as above

Human CCR8-ECD-Fc [11] = target: T3, Human CCR8-ECD-Fc; experiment: binding to HuCCR8-ECD-Fc protein, OD 450-570 nm
[12] = target: T5, cynomolgus monkey CCR8 expressed on …; experiment: flow cytometry, CyCCR8-293T cells, fold geomean over secondary alone
Cynomolgus CCR8-ECD-Fc [13] = target: T2, Cynomolgus CCR8-ECD-Fc; experiment: binding to CyCCR8-ECD-Fc protein, OD 450-570 nm
[14] = target: T1, human CCR8 (C-C chemokine receptor type …); experiment: on-cell affinity, flow cytometry on 293T cells expressing human CCR8; remark: listed apart in the source
[15] = target: T1, human CCR8 (C-C chemokine receptor type …); experiment: flow cytometry, HuCCR8-293T cells, fold geomean over secondary alone
[16] = target: T5, cynomolgus monkey CCR8 expressed on …; experiment: flow cytometry, CyCCR8-293T cells, fold geomean over secondary alone; remark: listed apart in the source
Cynomolgus CCR8-ECD-Fc [17] = target: T2, Cynomolgus CCR8-ECD-Fc; experiment: binding to CyCCR8-ECD-Fc protein, OD 450-570 nm
Human CCR8-ECD-Fc [18] = target: T3, Human CCR8-ECD-Fc; experiment: binding to HuCCR8-ECD-Fc protein, OD 450-570 nm
[19] = target: T1, human CCR8 (C-C chemokine receptor type …); experiment: flow cytometry, HuCCR8-293T cells, fold geomean over secondary alone; remark: listed apart in the source
[20] = target: T1, human CCR8 (C-C chemokine receptor type …); experiment: as above; remark: listed apart in the source
Cynomolgus CCR8-ECD-Fc [21] = target: T2, Cynomolgus CCR8-ECD-Fc; experiment: binding to CyCCR8-ECD-Fc protein, OD 450-570 nm
Human CCR8-ECD-Fc [22] = target: T3, Human CCR8-ECD-Fc; experiment: binding to HuCCR8-ECD-Fc protein, OD 450-570 nm
Human CCR8-ECD-Fc [23] = target: T3, Human CCR8-ECD-Fc; experiment: binding to HuCCR8-ECD-Fc protein, OD 450-570 nm
Cynomolgus CCR8-ECD-Fc [24] = target: T2, Cynomolgus CCR8-ECD-Fc; experiment: binding to CyCCR8-ECD-Fc protein, OD 450-570 nm
[25] = target: T5, cynomolgus monkey CCR8 expressed on …; experiment: flow cytometry, CyCCR8-293T cells, fold geomean over secondary alone; remark: listed apart in the source
[26] = target: T1, human CCR8 (C-C chemokine receptor type …); experiment: flow cytometry, HuCCR8-293T cells, fold geomean over secondary alone; remark: listed apart in the source
[27] = target: T1, human CCR8 (C-C chemokine receptor type …); experiment: as above; remark: listed apart in the source
[28] = target: T5, cynomolgus monkey CCR8 expressed on …; experiment: flow cytometry, CyCCR8-293T cells, fold geomean over secondary alone; remark: listed apart in the source
Cynomolgus CCR8-ECD-Fc [29] = target: T2, Cynomolgus CCR8-ECD-Fc; experiment: binding to CyCCR8-ECD-Fc protein, OD 450-570 nm
Human CCR8-ECD-Fc [30] = target: T3, Human CCR8-ECD-Fc; experiment: binding to HuCCR8-ECD-Fc protein, OD 450-570 nm

human CCR8 (C-C chemokine receptor type 8) expressed on cells (human), sequence (P51685 whole entry): as the sequence (P51685 whole entry) above

With Biolegend control (antibody) the IC50 (read off the curve) [1] was 0.03 µg/mL.

B1: anti-CCR8-parental-1 (antibody, V domains shown)
VH: QVQLVQSGAEVKKPGASVKVSCKASGYTFTSYYMHWVRQAPGQGLEWMGIINPSGGSTSYAQKFQGRVTMTRDTSTSTVYMELSSLRSEDTAVYYCARGVGNGFRFDYWGQGTLVT
VL: QSALTQPASVSGSPGQSITISCTGTSSDVGSYNLVSWYQQHPGKAPKLMIYEVSKRPSGVSNRFSGSKSGNTASLTISGLQAEDEADYYCSSYAGSSTFVVFGGGTKLTVL
notes: Full-length human IgG; also called parental antibody; H23188/L1037
Work on B1 yielded a Kd [2] of 1.06 nM.

B2: anti-CCR8-1-3 (antibody, V domains shown)
VH: B1 VH
VL: B1 VL with A8P, T23S, S31I, M49I, S54I, V60I, S67F, S96P, S97V, F99Y
notes: Parental-1 heavy chain with a shuffled lambda light chain; Human IgG expressed in CHO cells
In the case of B2, the Kd [2] is reported as 1.38 nM, the binding result (Cynomolgus CCR8-ECD-Fc [3]) is reported as “binds” and the binding result (Human CCR8-ECD-Fc [4]) is reported as “binds”. B2: no binding (tested: 10 ug/ml) [5].

B3: anti-CCR8-1-4 (antibody, V domains shown)
VH: B1 VH
VL: QSALTQPASVSGSPGQSITISCSGTSSNIGKYNLVSWYQQHPGEAPTLLIYEATKRPSGVSNRFSGSKSGNTASLTISGLQAEDEADYICSSYAGSRVFVVFGGGTKLTVL
notes: as for B2
In the case of B3, the Kd [2] is reported as 0.28 nM, the binding result (Human CCR8-ECD-Fc [6]) is reported as “binds” and the Kd [7] is reported as 35.9 nM. B3: binds (Cynomolgus CCR8-ECD-Fc [8]); no binding (tested: 10 ug/ml) [9].

B4: anti-CCR8-2-3 (antibody, V domains shown)
VH: EVQLVESGGGLVQPGRSLRLSCAASGFTFDDYAMHWVRQAPGKGLEWVSGISWNSGSIGYADSVKGRFTISRDNSKNSLYLQMNSLRAEDTALYYCARGRKSYRDSLRFDYWGQGTLVTVSS
VL: QSVLTQPPSVSAAPGQKVTISCSGSSSNIGNNYVSWYQQLPGTAPKLLIYDNNKRPSGIPDRFSGSKSGTSATLGITGLQTGDEADYYCGTWDSSLSAWVFGGGTKLT
notes: Human IgG from a mammalian expression vector in CHO cells; also called heavy chain H23499
B4 was tested, and the Kd [10] was 3.9 nM, the “EC50 (read off the curve)” value (Human CCR8-ECD-Fc [11]) was roughly 0.03 µg/mL and the “EC50 (read off the curve)” value [12] was roughly 1 µg/mL. For the same molecule, the “EC50 (read off the curve)” value (Cynomolgus CCR8-ECD-Fc [13]) was roughly 0.03 µg/mL, the Kd [14] was 2.5 nM and the “EC50 (read off the curve)” value [15] was roughly 0.4 µg/mL.

B5: anti-CCR8-2-8 (antibody, V domains shown)
VH: B4 VH with K101R
VL: QSVLTQPPSVSGAPGQRVTISCTGSGSNIGNNYVSWYQQLPGTAPKMLIYDNTRRPSGIPDRFSGSKSDTSATLGITGLQTGDEADYYCGAWDSSLRMWVFGGGTKLTVL
notes: Human IgG
B5 was tested, and the “EC50 (read off the curve)” value [16] was roughly 1 µg/mL, the Kd [10] was 2.5 nM and the Kd [14] was 1.5 nM. The “EC50 (read off the curve)” value (Cynomolgus CCR8-ECD-Fc [17]) was roughly 0.04 µg/mL, the “EC50 (read off the curve)” value (Human CCR8-ECD-Fc [18]) was roughly 0.04 µg/mL and the “EC50 (read off the curve)” value [19] was roughly 0.4 µg/mL.

B6: anti-CCR8-2-10 (antibody, V domains shown)
VH: B4 VH
VL: QSVLTQPPSVSAAPGQKVTISCSGTSSNIGKNFVSWYQQLPGTAPKLLIYDDNKRPSGIPDRFSGSKSATSATLGITGLQTGDGADYYCGTWDSSLSAWVFGGGTKLTVL
notes: Human IgG
For B6, the Kd [10] was 3.9 nM, the “EC50 (read off the curve)” value [20] was roughly 0.6 µg/mL and the Kd [14] was 2.4 nM. For the same molecule, the “EC50 (read off the curve)” value (Cynomolgus CCR8-ECD-Fc [21]) was roughly 0.04 µg/mL and the “EC50 (read off the curve)” value (Human CCR8-ECD-Fc [22]) was roughly 0.04 µg/mL.

B7: anti-CCR8-2-7 (antibody, V domains shown)
VH: B4 VH with K101D, D105K
VL: B5 VL
notes: Human IgG
In the case of B7, the Kd [10] is reported as 3.5 nM, the “EC50 (read off the curve)” value (Human CCR8-ECD-Fc [23]) is reported as roughly 0.04 µg/mL and the Kd [14] is reported as 1.3 nM. The “EC50 (read off the curve)” value (Cynomolgus CCR8-ECD-Fc [24]) was roughly 0.04 µg/mL, the “EC50 (read off the curve)” value [25] was roughly 1 µg/mL and the “EC50 (read off the curve)” value [26] was roughly 0.4 µg/mL.

B8: anti-CCR8-2-9 (antibody, V domains shown)
VH: B4 VH
VL: B5 VL
notes: Human IgG
B8 was tested, and the Kd [10] was 3.2 nM, the “EC50 (read off the curve)” value [27] was roughly 0.4 µg/mL and the “EC50 (read off the curve)” value [28] was roughly 0.4 µg/mL. For the same molecule, the Kd [14] was 1.5 nM, the “EC50 (read off the curve)” value (Cynomolgus CCR8-ECD-Fc [29]) was roughly 0.04 µg/mL and the “EC50 (read off the curve)” value (Human CCR8-ECD-Fc [30]) was roughly 0.04 µg/mL.
